# Measured values: patent publication US20260176701A1 (BRIGHAM AND WOMEN S HOSPITAL, published 2026)
# B1: anti-ORF1 Nb dimer 2 Nb2-Nb2 (MT992) (VHH)
# chain: DVQLVESGGGLVQAGGSLRLSCAASGRTDDIYTMGWFRQGPGKEREFVAVISWSITRRSSITHYADSVKGRFTISGENAENTVYLQMNTLKPEDTAVYYCAAKTGYSGSMSSYQDYDSWGQGTQVTVSGGGGSGGGGSGGGGSGGGGSMADVQLVESGGGLVQAGGSLRLSCAASGRTDDIYTMGWFRQGPGKEREFVAVISWSITRRSSITHYADSVKGRFTISGENAENTVYLQMNTLKPEDTAVYYCAAKTGYSGSMSSYQDYDSWGQGTQVTVSHHHHHH
# notes: Homodimeric tandem nanobody, short (GGGGS)x4 linker; also called Nb 2-2; Nb2-2 pMT992
# B2: anti-ORF1 Nb dimer 4 Nb5-Nb1 (MT994) (bispecific antibody)
# chain: QVQLVESGGDLVQAGGSLRLSCAVSGGTSSNYGMGWFRQAPGKEREFVSSISWSGSRTLYSDSVKGRFTISRDNAKNTVDLQMNSLKPEDTAVYYCTAVREYRDYPQRDNFDYWGQGTQVTVSGGGGSGGGGSGGGGSGGGGSMADVQLVESGGGLVQAGESLRLSCAASGRTLSSLNMAWFRQVPGKERDFVSLISRSGSTDYVHSVRGRFTISRDNAKNTVYLEMNSLKPEDTAVYYCAADDNYNGRYPFRDEYEYWGQGTQVTVSHHHHHH
# notes: Heterodimeric tandem nanobody, short linker; also called Nb 5-1; Nb5-1 pMT994
# B3: anti-ORF1 Nanobody 9 (Nb9) (VHH)
# VHH: QVHLVESGGKLVQAGESLKLSCEVSGRTFSISGAGWFRQAPGKEREFVAAITWTGGYPYYDASVKGRFTISREDPDNTVYLSMNSLKPEDTAVYYCATRRAGDLDFSYAQQGRYDNWGQGTQVTVSH
# notes: Llama nanobody
# B4: anti-ORF1 Nb dimer 5 Nb5-Nb2 (MT995) (bispecific antibody)
# chain: QVQLVESGGDLVQAGGSLRLSCAVSGGTSSNYGMGWFRQAPGKEREFVSSISWSGSRTLYSDSVKGRFTISRDNAKNTVDLQMNSLKPEDTAVYYCTAVREYRDYPQRDNFDYWGQGTQVTVSGGGGSGGGGSGGGGSGGGGSMADVQLVESGGGLVQAGGSLRLSCAASGRTDDIYTMGWFRQGPGKEREFVAVISWSITRRSSITHYADSVKGRFTISGENAENTVYLQMNTLKPEDTAVYYCAAKTGYSGSMSSYQDYDSWGQGTQVTVSHHHHHH
# notes: Heterodimeric tandem nanobody, short linker; also called Nb 5-2; Nb5-2 pMT995
# B5: anti-ORF1 Nanobody 21 (Nb21) (VHH)
# VHH: QVQLAESGGGLVQAGGSLRLSCAASGRTSTIYIMGWFRQAPGKDREFVAGITYTGGYPYYADSVQGRFTLSNDNADHTAYLQMNNLKPEDSAVYYCAARSRGGITTHERDFGSWGQGTQVTVSH
# notes: Llama nanobody
# B6: anti-ORF1 Nanobody 2 (Nb2) (VHH)
# VHH: DVQLVESGGGLVQAGGSLRLSCAASGRTDDIYTMGWFRQGPGKEREFVAVISWSITRRSSITHYADSVKGRFTISGENAENTVYLQMNTLKPEDTAVYYCAAKTGYSGSMSSYQDYDSWGQGTQVTVSH
# notes: Llama nanobody
# B7: anti-ORF1 Nb dimer 3 Nb5-Nb5 (MT993) (bispecific antibody)
# chain: QVQLVESGGDLVQAGGSLRLSCAVSGGTSSNYGMGWFRQAPGKEREFVSSISWSGSRTLYSDSVKGRFTISRDNAKNTVDLQMNSLKPEDTAVYYCTAVREYRDYPQRDNFDYWGQGTQVTVSGGGGSGGGGSGGGGSGGGGSMAQVQLVESGGDLVQAGGSLRLSCAVSGGTSSNYGMGWFRQAPGKEREFVSSISWSGSRTLYSDSVKGRFTISRDNAKNTVDLQMNSLKPEDTAVYYCTAVREYRDYPQRDNFDYWGQGTQVTVSHHHHHH
# notes: Homodimeric tandem nanobody, short linker; also called Nb 5-5; Nb5-5
# B8: anti-ORF1 Nanobody 10 (Nb10) (VHH)
# VHH: QVQLVESGGGLVQAGESLRLSCQVSGRTFSISGAGWFRQAPGKEREFVAAITWTGGYPYYATSVKGRFTIARDDPENRVYLSMNSLKPEDTAVYYCATRRAGSLDFDYAQQTRYDNWGQGTQVTVSH
# notes: Llama nanobody
# B9: anti-ORF1 Nb trimer Nb5-Nb5-Nb5 (MT996) (bispecific antibody)
# chain: QVQLVESGGDLVQAGGSLRLSCAVSGGTSSNYGMGWFRQAPGKEREFVSSISWSGSRTLYSDSVKGRFTISRDNAKNTVDLQMNSLKPEDTAVYYCTAVREYRDYPQRDNFDYWGQGTQVTVSGGGGSGGGGSGGGGSGGGGSMAQVQLVESGGDLVQAGGSLRLSCAVSGGTSSNYGMGWFRQAPGKEREFVSSISWSGSRTLYSDSVKGRFTISRDNAKNTVDLQMNSLKPEDTAVYYCTAVREYRDYPQRDNFDYWGQGTQVTVSGGGGSGGGGSGGGGSGGGGSMAQVQLVESGGDLVQAGGSLRLSCAVSGGTSSNYGMGWFRQAPGKEREFVSSISWSGSRTLYSDSVKGRFTISRDNAKNTVDLQMNSLKPEDTAVYYCTAVREYRDYPQRDNFDYWGQGTQVTVSHHHHHH
# notes: Homotrimeric tandem nanobody; also called Nb 5-5-5
# B10: anti-ORF1 Nb dimer 6 Nb5-Nb5 long linker (MT997) (bispecific antibody)
# chain: QVQLVESGGDLVQAGGSLRLSCAVSGGTSSNYGMGWFRQAPGKEREFVSSISWSGSRTLYSDSVKGRFTISRDNAKNTVDLQMNSLKPEDTAVYYCTAVREYRDYPQRDNFDYWGQGTQVTVSGGGGSGGGGSGGGGSGGGGSEAAAKEAAAKEAAAKSGGGGSGGGGSGGGGSGGGGSMAQVQLVESGGDLVQAGGSLRLSCAVSGGTSSNYGMGWFRQAPGKEREFVSSISWSGSRTLYSDSVKGRFTISRDNAKNTVDLQMNSLKPEDTAVYYCTAVREYRDYPQRDNFDYWGQGTQVTVSHHHHHH
# notes: Homodimeric tandem nanobody, long linker of 56 residues; also called Nb 5-5 long; Nb5-5LL
# B11: anti-ORF1 Nanobody 5 (Nb5) (VHH)
# VHH: QVQLVESGGDLVQAGGSLRLSCAVSGGTSSNYGMGWFRQAPGKEREFVSSISWSGSRTLYSDSVKGRFTISRDNAKNTVDLQMNSLKPEDTAVYYCTAVREYRDYPQRDNFDYWGQGTQVTVSH
# notes: Llama nanobody; also called Clone 5; C5
# B12: 36D12 (antibody, V domains shown)
# VH: QSVEESGGRLVTPGTPLTLTCTVSGFSLSTYAMGWFRQAPGKGLEWIGTIWSGAFTDYANWVNGRFTISKTSTTVDLKITSPTTEDTATYFCAREADSDLYTYFKLWGPGTLVTVSS
# VL: AYDMTQTPASVEVAVGGTVTLKCQASESIEIYLAWYQQKPGQPPKLLVYDASTLASGVPSRFKGSGSGTQFTLTISGVECADAATYYCQQGYRSDNVHNVFGGGTEVVVK
# notes: Rabbit monoclonal antibody; also called 36D12-1
# B13: 42D10 (antibody, V domains shown)
# VH: QSVEESGGRLVTPGTPLTLTCTVSGFSLSSYAMTWVRQAPGKGLEWIGYIYAGGIADYANWAKGRFTISKTSTTVDLTITSPTTEDTATYFCAREGDSDDYVYLSLWGPGTLVTVSS
# VL: ALVMTQTPSSVSAAVGGTVTINCQASQSIVGYLAWYQQKPGQPPKLLIYRASTLASGVSSRFKGSGSGTEFTLTISGVQCADAATYYCQQGYINSNIDNTFGGGTEVVVK
# notes: Rabbit monoclonal antibody; also called 42D10-1
# B14: 34C5 (antibody, V domains shown)
# VH: QSVEESGGRLVKPDESLTLTCTVSGFSLSAYEMGWVRQAPGKGLEWIAAISTGDTPYYATWTKGRFTISRASSTTVDLKMTSPTTEDTATYFCARYGHNYEYVFDLWGQGTLVTVSS
# VL: AYDMTQTPASVSAAVGGTVTINCQASQSIGSYLSWYQQKPGQPPKLLIYSASTLASGVPSRFSGSGYGTEFTLTIGGVQCDDAAAYYCQQGESIGSVHNVFGGGTEVVVA
# notes: Rabbit monoclonal antibody; also called 34C5-1
# B15: 61A11 (antibody, V domains shown)
# VH: QSVEESGGRLVTPGTPLTLTCTVSGIDLSSYVMGWVRQAPGKGLDWIGMIDTHDDTYFAPWARGRFTISRTSSTTVDLKVASTTTEDTATYFCAGNLALWGRGTLVTVSS
# VL: AQVLTQTPSPVSVAVGGTVTISCQSSQSVSSDNWLGWYQQKPGQPPKLLIYRASKLASGVSSRFKGSGSGTQFILTISDLECDDAATYYCAGGYSGSIIAFGGGTEVVVK
# notes: Rabbit monoclonal antibody; also called 61A11-1
# B16: 34H7 (antibody, V domains shown)
# VH: QSLEESGGDLVKPGASLTLTCTASGFSLNNYVMYWVRQAPGKGLESIACIYTGSGTTYYATWAKGRFTISKTSSTTVTLQMTSLTAADTATYFCARRTYTSDSYAGSFNLWGPGTLVTVSS
# VL: AYDMTQTPASVSEPVGGTVTIKCQASQSIGSNLAWYQQKPGQRPKLLIYAASYLASGAPSRFKGSGSGTEFTLTISGVQCDDAATYYCQQGWSSSDVDSTFGGGTEVVVK
# notes: Rabbit monoclonal antibody; also called 34H7-1; 37H7
# B17: 33A8 (antibody, V domains shown)
# VH: QSLEESGGGLVQPEGSLTLTCKASGFSFINNNHICWVRQAPGKGLEWIACIYAGSTGYTYYANWAKGRFTISKTSSTTVTLQMTSLTAADTATYFCARVPYAGYVNYGYTFFNLWGPGTLVTVSS
# VL: AAVLTQTPSPVSAPVGGTVTISCQSSQSVYRTNDLAWYQQKPGQPPKLLIYWASKLAAGVPSRFKGSGSGTQFTLTISGVQCDDAATYYCLGGYYDDGDLNAFGGGTEVVVN
# notes: Rabbit monoclonal antibody; also called 33A8-1
# Target: T1, recombinant human ORF1p (LINE-1 open reading frame 1 protein, L1RP) (human, UniProt Q9UN81 1-338)
# T1 construct: Expressed in E. coli, tag cleaved, monodisperse homotrimer; Immobilized on the CM5 chip in SPR; also called trimeric ORF1p
# T1 sequence: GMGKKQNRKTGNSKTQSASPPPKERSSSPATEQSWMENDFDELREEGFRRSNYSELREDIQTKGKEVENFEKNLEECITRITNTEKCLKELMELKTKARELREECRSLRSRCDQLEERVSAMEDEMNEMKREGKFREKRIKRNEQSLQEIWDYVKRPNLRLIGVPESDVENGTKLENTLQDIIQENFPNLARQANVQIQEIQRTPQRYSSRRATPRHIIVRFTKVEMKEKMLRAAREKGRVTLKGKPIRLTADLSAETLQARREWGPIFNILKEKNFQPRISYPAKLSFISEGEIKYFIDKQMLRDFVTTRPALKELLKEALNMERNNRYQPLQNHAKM
# Assay: SPR (Biacore 8K), ORF1p immobilized on CM5, single-cycle kinetics, 1:1 fit
# Description: Surface plasmon resonance (SPR) assays. Binding kinetics (kₐ, kd, and KD) of antibody and nanobody constructs for ORF1p were obtained on a Biacore 8K instrument (Cytiva). Recombinant ORF1p was immobilized on a Series S CM5 sensor chip at 1.5 μg/ml using EDC/NHS coupling chemistry according to the manufacturer's guidelines. Nanobodies and antibodies were prepared as analytes and run in buffer containing 20 mM HEPES pH 7.4, 150 mM NaCl, and 0.05% Tween-20. Analytes were injected at 30 μl/min in single-cycle kinetics experiments at concentrations of 0.1, 0.3, 1, 3.3, and 10 nM, with association times of 120-180 sec, and a dissociation time of 1200-7200 sec, depending on observed off-rate. Residual bound protein was removed between experiments using 10 mM glycine-HCl pH 3.0. Data were analyzed using Biacore software, fitting a Langmuir 1:1 binding model to sensorgrams to calculate kinetic parameters.
row,Binder,Kd [nM]
1,B1,0.0092
2,B2,0.083
3,B3,0.19
4,B4,0.036
5,B5,0.24
6,B6,0.48
7,B7,0.07
8,B8,0.19
9,B9,0.027
10,B10,0.0098
11,B11,0.11

# Target: T1, recombinant human ORF1p (LINE-1 open …)
# Assay: Simoa sandwich, recombinant ORF1p at 40 pg/mL in diluent buffer, signal/background heat map; capture on the x axis, detector on the y axis
# Description: ORF1p Simoa assays. Simoa assays were performed on an HD-X Analyzer (Quanterix Corp.), with all assay reagents and consumables loaded onto the instrument according to the manufacturer's instructions. 250,000 capture beads and 250,000 helper (non-conjugated) beads were used in each Simoa assay. A three-step assay configuration was used for the first- and second-generation assays, consisting of a 15-minute target capture step (incubation of capture beads with 100 μL sample), 5-minute incubation with detector reagent (0.3 μg/mL for both first- and second-generation assays), and 5-minute incubation with streptavidin-β-galactosidase (150 pM for first-generation assay; 300 pM for second-generation assays). The beads were washed with System Wash Buffer 1 (Quanterix Corp.) after each assay step. Upon the final wash cycle, the beads were loaded together with the fluorogenic enzyme substrate resorufin β-D-galactopyranoside into a 216,000-microwell array, which was subsequently sealed with oil. Automated imaging and counting of “on” and “off” wells and calculation of average enzyme per bead (AEB) were performed by the instrument. Calibration curves were fit using a 4PL fit with a 1/y² weighting factor, and the limit of detection (LOD) was determined as three standard deviations above the blank.
# Signal/background was also determined for a number of the pairs by Simoa using recombinant ORF1p protein in diluent buffer; the results are shown in FIG. 15. When the rabbit monoclonal antibodies were used as capture and detector, the background was high. The best combinations were the rabbit monoclonal antibodies as capture/Ab6 detector; Nb5-5 capture/rabbit monoclonal antibodies detector; and 4H1 capture/rabbit monoclonal antibody detector pairs.
row,Binder,binding result
1,B12,binds
2,B13,binds
3,B14,binds
4,B15,binds
5,B16,binds
6,B17,binds
